Tests used:
GST-mLysRS = GST-mLysRS (Mus musculus, UniProt Q99MN1 1-595); assay: streptavidin pull-down
GST-LysRS (human) = GST-LysRS (human) (Homo sapiens, UniProt Q15046 1-597); assay: streptavidin pull-down, WB quantification
GST-cGAS (human) = GST-cGAS (human) (Homo sapiens, UniProt Q8N884 1-522); assay: streptavidin pull-down, WB quantification
Chain of GST-cGAS (human) (Q8N884 whole entry): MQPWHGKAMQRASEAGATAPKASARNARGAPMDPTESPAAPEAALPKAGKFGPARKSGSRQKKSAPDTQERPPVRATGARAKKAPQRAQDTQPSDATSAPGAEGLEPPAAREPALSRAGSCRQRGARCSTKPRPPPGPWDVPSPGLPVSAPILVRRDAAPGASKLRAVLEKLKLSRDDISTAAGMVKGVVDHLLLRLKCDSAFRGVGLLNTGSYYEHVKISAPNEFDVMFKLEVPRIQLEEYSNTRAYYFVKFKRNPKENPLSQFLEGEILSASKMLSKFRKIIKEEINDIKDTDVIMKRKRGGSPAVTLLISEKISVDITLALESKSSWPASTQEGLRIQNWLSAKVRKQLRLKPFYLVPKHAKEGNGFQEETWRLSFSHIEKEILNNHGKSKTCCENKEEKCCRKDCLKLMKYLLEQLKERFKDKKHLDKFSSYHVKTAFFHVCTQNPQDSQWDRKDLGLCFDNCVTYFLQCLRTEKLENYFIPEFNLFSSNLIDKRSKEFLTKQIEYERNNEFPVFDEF

Chain of GST-LysRS (human) (Q15046 whole entry): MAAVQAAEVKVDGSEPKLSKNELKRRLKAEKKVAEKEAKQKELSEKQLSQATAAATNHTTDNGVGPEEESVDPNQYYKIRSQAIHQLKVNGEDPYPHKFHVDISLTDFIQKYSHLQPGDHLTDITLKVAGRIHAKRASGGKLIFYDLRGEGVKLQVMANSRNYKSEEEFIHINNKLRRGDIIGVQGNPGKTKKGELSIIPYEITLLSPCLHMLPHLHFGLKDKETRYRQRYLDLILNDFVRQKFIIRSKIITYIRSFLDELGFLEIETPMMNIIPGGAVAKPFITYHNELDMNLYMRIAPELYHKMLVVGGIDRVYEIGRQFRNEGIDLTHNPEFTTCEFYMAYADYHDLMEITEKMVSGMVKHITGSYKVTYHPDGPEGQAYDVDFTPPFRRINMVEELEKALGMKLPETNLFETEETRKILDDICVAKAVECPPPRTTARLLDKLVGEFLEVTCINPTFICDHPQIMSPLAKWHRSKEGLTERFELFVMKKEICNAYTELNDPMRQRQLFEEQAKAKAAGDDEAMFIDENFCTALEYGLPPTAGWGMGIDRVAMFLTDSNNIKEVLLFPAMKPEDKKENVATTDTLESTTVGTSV
Chain of GST-mLysRS (Q99MN1 whole entry): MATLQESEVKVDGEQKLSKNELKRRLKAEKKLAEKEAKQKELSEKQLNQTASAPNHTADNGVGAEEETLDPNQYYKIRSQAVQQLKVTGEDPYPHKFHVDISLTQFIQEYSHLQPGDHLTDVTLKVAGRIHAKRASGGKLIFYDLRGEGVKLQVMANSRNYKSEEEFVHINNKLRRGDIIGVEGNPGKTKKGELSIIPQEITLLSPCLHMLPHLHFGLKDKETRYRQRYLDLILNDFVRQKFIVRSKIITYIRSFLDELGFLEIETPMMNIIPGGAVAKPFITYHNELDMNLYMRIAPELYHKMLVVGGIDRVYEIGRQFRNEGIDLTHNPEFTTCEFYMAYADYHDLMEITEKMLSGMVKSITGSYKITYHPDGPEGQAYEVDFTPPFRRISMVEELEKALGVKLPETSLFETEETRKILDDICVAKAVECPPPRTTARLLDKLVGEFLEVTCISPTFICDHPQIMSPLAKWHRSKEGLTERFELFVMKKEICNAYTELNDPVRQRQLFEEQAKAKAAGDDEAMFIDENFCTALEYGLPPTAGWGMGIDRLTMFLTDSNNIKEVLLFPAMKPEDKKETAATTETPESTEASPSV

B1: BRNA:DNA hybrid (BRNA 2/DNA 9) (DNA:RNA)
RNA: UUUCAAUUCCUUUUAGGAUUAAUCUUGAAGAUAGAGUUAA
DNA: TTAACTCTATCTTCAAGATTAATCCTAAAAGGAATTGAAA
- binding result (GST-mLysRS): binds
- Kd (GST-LysRS (human)): ~11.3 nM
- Kd (GST-cGAS (human)): ~8.05 nM
